Article PMC4519979 (Biochemistry, 2015)

How the values were obtained:
[1] = biological target: the molecule itself; assay: native gel or EMSA; BN-PAGE with Western blot for the His tag; membranes (30 ug protein) solubilised in PBS pH 7.4 with 1% DDM, 2.8 M urea, 1 mM EDTA, 30 min, room temperature; heptamer to monomers
[2] = biological target: the molecule itself; assay: FRET or BRET; homo-FRET between Trp residues of different subunits read by steady-state fluorescence anisotropy; heptameric and dissociated fractions from SEC, DDM-solubilised; excitation 295 nm, emission 340-360 nm
[3] = biological target: the molecule itself; assay: native gel or EMSA; BN-PAGE after the fluorescence measurements of purified MscS reconstituted into DOPC bilayers (molar ratio 1:100; 40 mM HEPES pH 7.2, 100 mM KCl, 1 mM EGTA)
[4] = biological target: the molecule itself; assay: SEC; HiPrep Superdex 200 16/600 after Ni-NTA; 0.03% DDM, 50 mM sodium phosphate pH 7.5, 150 mM NaCl; ratio of heptamers to monomers

B1: wild-type (WT) MscS (complex, E. coli)
chain: MEDLNVVDSINGAGSWLVANQALLLSYAVNIVAALAIIIVGLIIARMISNAVNRLMISRKIDATVADFLSALVRYGIIAFTLIAALGRVGVQTASVIAVLGAAGLAVGLALQGSLSNLAAGVLLVMFRPFRAGEYVDLGGVAGTVLSVQIFSTTMRTADGKIIVIPNGKIIAGNIINFSREPVRRNEFIIGVAYDSDIDQVKQILTNIIQSEDRILKDREMTVRLNELGASSINFVVRVWSNSGDLQNVYWDVLERIKREFDAAGISFPYPQMDVNFKRVKEDKAA
With B1 as the protein, how does the “stoichiometry N” value [1] read?
The value was 7.

B2: MscS YFF L109W (complex, E. coli, UniProt P0C0S1 1-286, looked up)
chain: MEDLNVVDSINGAGSYLVANQALLLSYAVNIVAALAIIIVGLIIARMISNAVNRLMISRKIDATVADFLSALVRYGIIAFTLIAALGRVGVQTASVIAVLGAAGLAVGWALQGSLSNLAAGVLLVMFRPFRAGEYVDLGGVAGTVLSVQIFSTTMRTADGKIIVIPNGKIIAGNIINFSREPVRRNEFIIGVAYDSDIDQVKQILTNIIQSEDRILKDREMTVRLNELGASSINFVVRVFSNSGDLQNVYFDVLERIKREFDAAGISFPYPQMDVNFKRVKEDKAA
Does B2 bind [2]?
Result: binds

B3: MscS YFF T93W (complex, E. coli)
chain: MEDLNVVDSINGAGSYLVANQALLLSYAVNIVAALAIIIVGLIIARMISNAVNRLMISRKIDATVADFLSALVRYGIIAFTLIAALGRVGVQWASVIAVLGAAGLAVGLALQGSLSNLAAGVLLVMFRPFRAGEYVDLGGVAGTVLSVQIFSTTMRTADGKIIVIPNGKIIAGNIINFSREPVRRNEFIIGVAYDSDIDQVKQILTNIIQSEDRILKDREMTVRLNELGASSINFVVRVFSNSGDLQNVYFDVLERIKREFDAAGISFPYPQMDVNFKRVKEDKAA
Which “stoichiometry N” value [3] does the source give for B3 here?
The value was 7.

B4: MscS YFF G101W (complex, E. coli, UniProt P0C0S1 1-286, looked up)
chain: MEDLNVVDSINGAGSYLVANQALLLSYAVNIVAALAIIIVGLIIARMISNAVNRLMISRKIDATVADFLSALVRYGIIAFTLIAALGRVGVQTASVIAVLWAAGLAVGLALQGSLSNLAAGVLLVMFRPFRAGEYVDLGGVAGTVLSVQIFSTTMRTADGKIIVIPNGKIIAGNIINFSREPVRRNEFIIGVAYDSDIDQVKQILTNIIQSEDRILKDREMTVRLNELGASSINFVVRVFSNSGDLQNVYFDVLERIKREFDAAGISFPYPQMDVNFKRVKEDKAA
B4 was tested. Which “stoichiometry N” value [3] did it give?
The value was 7.

B5: MscS YFF (complex, E. coli)
chain: MEDLNVVDSINGAGSYLVANQALLLSYAVNIVAALAIIIVGLIIARMISNAVNRLMISRKIDATVADFLSALVRYGIIAFTLIAALGRVGVQTASVIAVLGAAGLAVGLALQGSLSNLAAGVLLVMFRPFRAGEYVDLGGVAGTVLSVQIFSTTMRTADGKIIVIPNGKIIAGNIINFSREPVRRNEFIIGVAYDSDIDQVKQILTNIIQSEDRILKDREMTVRLNELGASSINFVVRVFSNSGDLQNVYFDVLERIKREFDAAGISFPYPQMDVNFKRVKEDKAA
B5 was tested. Which “stoichiometry N” value [1] did it give?
Its value is 7.

B6: MscS YFF G113W (complex, E. coli, UniProt P0C0S1 1-286, looked up)
chain: MEDLNVVDSINGAGSYLVANQALLLSYAVNIVAALAIIIVGLIIARMISNAVNRLMISRKIDATVADFLSALVRYGIIAFTLIAALGRVGVQTASVIAVLGAAGLAVGLALQWSLSNLAAGVLLVMFRPFRAGEYVDLGGVAGTVLSVQIFSTTMRTADGKIIVIPNGKIIAGNIINFSREPVRRNEFIIGVAYDSDIDQVKQILTNIIQSEDRILKDREMTVRLNELGASSINFVVRVFSNSGDLQNVYFDVLERIKREFDAAGISFPYPQMDVNFKRVKEDKAA
For B6, which “stoichiometry N” value [3] is on record?
Its value is 7.

B7: MscS YFF R88W (complex, E. coli, UniProt P0C0S1 1-286, looked up)
chain: MEDLNVVDSINGAGSYLVANQALLLSYAVNIVAALAIIIVGLIIARMISNAVNRLMISRKIDATVADFLSALVRYGIIAFTLIAALGWVGVQTASVIAVLGAAGLAVGLALQGSLSNLAAGVLLVMFRPFRAGEYVDLGGVAGTVLSVQIFSTTMRTADGKIIVIPNGKIIAGNIINFSREPVRRNEFIIGVAYDSDIDQVKQILTNIIQSEDRILKDREMTVRLNELGASSINFVVRVFSNSGDLQNVYFDVLERIKREFDAAGISFPYPQMDVNFKRVKEDKAA
Does B7 bind [4]?
Result: binds

B8: MscS YFF L105W (complex, E. coli, UniProt P0C0S1 1-286, looked up)
chain: MEDLNVVDSINGAGSYLVANQALLLSYAVNIVAALAIIIVGLIIARMISNAVNRLMISRKIDATVADFLSALVRYGIIAFTLIAALGRVGVQTASVIAVLGAAGWAVGLALQGSLSNLAAGVLLVMFRPFRAGEYVDLGGVAGTVLSVQIFSTTMRTADGKIIVIPNGKIIAGNIINFSREPVRRNEFIIGVAYDSDIDQVKQILTNIIQSEDRILKDREMTVRLNELGASSINFVVRVFSNSGDLQNVYFDVLERIKREFDAAGISFPYPQMDVNFKRVKEDKAA
How did the “stoichiometry N” value [3] turn out when B8 was run?
Its value is 7.

B9: MscS YFF A103W (complex, E. coli, UniProt P0C0S1 1-286, looked up)
chain: MEDLNVVDSINGAGSYLVANQALLLSYAVNIVAALAIIIVGLIIARMISNAVNRLMISRKIDATVADFLSALVRYGIIAFTLIAALGRVGVQTASVIAVLGAWGLAVGLALQGSLSNLAAGVLLVMFRPFRAGEYVDLGGVAGTVLSVQIFSTTMRTADGKIIVIPNGKIIAGNIINFSREPVRRNEFIIGVAYDSDIDQVKQILTNIIQSEDRILKDREMTVRLNELGASSINFVVRVFSNSGDLQNVYFDVLERIKREFDAAGISFPYPQMDVNFKRVKEDKAA
B9 was tested. Which “stoichiometry N” value [3] did it give?
Its value is 7.

B10: MscS YFF G90W (complex, E. coli)
chain: MEDLNVVDSINGAGSYLVANQALLLSYAVNIVAALAIIIVGLIIARMISNAVNRLMISRKIDATVADFLSALVRYGIIAFTLIAALGRVWVQTASVIAVLGAAGLAVGLALQGSLSNLAAGVLLVMFRPFRAGEYVDLGGVAGTVLSVQIFSTTMRTADGKIIVIPNGKIIAGNIINFSREPVRRNEFIIGVAYDSDIDQVKQILTNIIQSEDRILKDREMTVRLNELGASSINFVVRVFSNSGDLQNVYFDVLERIKREFDAAGISFPYPQMDVNFKRVKEDKAA
Does B10 bind [4]?
Result: binds

B11: MscS YFF A98W (complex, E. coli, UniProt P0C0S1 1-286, looked up)
chain: MEDLNVVDSINGAGSYLVANQALLLSYAVNIVAALAIIIVGLIIARMISNAVNRLMISRKIDATVADFLSALVRYGIIAFTLIAALGRVGVQTASVIWVLGAAGLAVGLALQGSLSNLAAGVLLVMFRPFRAGEYVDLGGVAGTVLSVQIFSTTMRTADGKIIVIPNGKIIAGNIINFSREPVRRNEFIIGVAYDSDIDQVKQILTNIIQSEDRILKDREMTVRLNELGASSINFVVRVFSNSGDLQNVYFDVLERIKREFDAAGISFPYPQMDVNFKRVKEDKAA
Does B11 bind [4]?
Result: binds

B12: MscS YFF A94W (complex, E. coli)
chain: MEDLNVVDSINGAGSYLVANQALLLSYAVNIVAALAIIIVGLIIARMISNAVNRLMISRKIDATVADFLSALVRYGIIAFTLIAALGRVGVQTWSVIAVLGAAGLAVGLALQGSLSNLAAGVLLVMFRPFRAGEYVDLGGVAGTVLSVQIFSTTMRTADGKIIVIPNGKIIAGNIINFSREPVRRNEFIIGVAYDSDIDQVKQILTNIIQSEDRILKDREMTVRLNELGASSINFVVRVFSNSGDLQNVYFDVLERIKREFDAAGISFPYPQMDVNFKRVKEDKAA
Which “stoichiometry N” value [3] does the source give for B12 here?
Its value is 7.

B13: MscS YFF I97W (complex, E. coli, UniProt P0C0S1 1-286, looked up)
chain: MEDLNVVDSINGAGSYLVANQALLLSYAVNIVAALAIIIVGLIIARMISNAVNRLMISRKIDATVADFLSALVRYGIIAFTLIAALGRVGVQTASVWAVLGAAGLAVGLALQGSLSNLAAGVLLVMFRPFRAGEYVDLGGVAGTVLSVQIFSTTMRTADGKIIVIPNGKIIAGNIINFSREPVRRNEFIIGVAYDSDIDQVKQILTNIIQSEDRILKDREMTVRLNELGASSINFVVRVFSNSGDLQNVYFDVLERIKREFDAAGISFPYPQMDVNFKRVKEDKAA
Does B13 bind [4]?
Result: binds
